Experiments:
[1] = tested on: LIF expression in normal human neuroprogenitors; experiment: LIF mRNA in neurospheres of normal human neuroprogenitors; type: cell-based; conditions: 100 pM, 3 hours, compared with GBM neurospheres
Experimental: FIG. 8. Effect of TGFβ on the capacity of self-renewal of normal human neuroprogenitors. (A) Immunocytochemistry of the indicated markers was performed in human neuroprogenitor neurospheres. (B) Neurospheres of the sample of GBM1 and of human neuroprogenitors were incubated with the indicated members of the 100 pM TGFβ family for 3 hours and the mRNA levels of LIF were determined. (C, D) Neurosphere cells of normal human neuroprogenitors were incubated in the same conditions that have been described above in FIG. 1D in the presence of 100 pM TGFβ1 or 20 ng/ml LIF for 7 days and the number of newly formed neurospheres (C) and the number total of cells (D) were determined.
The U373MG and A172 cells were a generous gift from J. Rich and D. Bigner and were cultured in DMEM with 10% fetal bovine serum (FBS). The primary culture of tumor cells (PCTC) and the GBM neurospheres were generated as described (Bruna et al., (2007) Cancer Cell 11, 147-160; Gunther et al., (2008) Oncogene. May 1; 27(20):2897-909). Briefly, the samples of tumors were processed in the 30 minutes after the surgical resection. The ground pieces of the samples of human gliomas were digested with 200 U/ml collagenase I (Sigma) and 500 U/ml of DNase I (Sigma) in PBS for 2 hours at 37° C. and with constant vigorous stirring. The suspension of individual cells was filtered through a 70 μm cell filter (BD Falcon) and washed with PBS. […]
qRT-PCR was performed using Taqman probes from Applied Biosystems, according to the manufacturer's recommendations. The reactions were carried out in a ABI 7000 sequence detector (Perkin Elmer) and the results were expressed as the fold change calculated by means of the DDCt method relative to the control sample or the first quantified sample. […]
It was decided to assess whether this effect was specific to tumor cells or was also present in normal neuroprogenitor cells. […] First, it was determined if TGFβ induced LIF in normal human neuroprogenitors. […]

[2] = tested on: LIF expression in GBM neurospheres; experiment: LIF mRNA by qRT-PCR in GBM neurospheres; type: cell-based, human; conditions: 100 pM, 3 hours, medium without serum
Experimental: FIG. 3. TGFβ induces the expression of LIF in PCTC and GBM neurospheres. (A) PCTC cells of the 11 samples of the indicated GEM (GBM1-11) were treated with 100 pM TGFβ1 for 3 hours in medium without serum or left untreated, and the expression levels of LIF were determined by means of qRT-PCR. The g-actin was determined as an internal normalization control. (B) GBM neurosphere cells were treated as in A and the expression levels of LIF were determined by means of qRT-PCR as in A. (C) GBM neurospheres were incubated with 100 pM TGFβ1 and/or 2 μM TβRI inhibitor for 3 hours in medium without serum and the mRNA levels of LIF were determined by means of qRT-PCR as in A. (D) GBM1 neurospheres were incubated with 100 pM TGFβ1, TGFβ2 and TGFβ3 for 3 hours in medium without serum and the mRNA levels of LIF were determined by means of qRT-PCR as in A. (E) The levels of LIF protein secreted were determined by means of ELISA in GBM1 neurospheres after 48 hours of treatment with 100 pM TGFβ1.
The U373MG and A172 cells were a generous gift from J. Rich and D. Bigner and were cultured in DMEM with 10% fetal bovine serum (FBS). The primary culture of tumor cells (PCTC) and the GBM neurospheres were generated as described (Bruna et al., (2007) Cancer Cell 11, 147-160; Gunther et al., (2008) Oncogene. May 1; 27(20):2897-909). Briefly, the samples of tumors were processed in the 30 minutes after the surgical resection. The ground pieces of the samples of human gliomas were digested with 200 U/ml collagenase I (Sigma) and 500 U/ml of DNase I (Sigma) in PBS for 2 hours at 37° C. and with constant vigorous stirring. The suspension of individual cells was filtered through a 70 μm cell filter (BD Falcon) and washed with PBS. Finally, the cells were resuspended and subsequently cultured in DMEM with 10% FBS, for the culture of PCTCs, or in neurosphere medium in the case of the GBM neurospheres. The neurospheres of normal human neuroprogenitors were generated from human embryonic cerebral cortex tissue (12-16 weeks after the conception) collected after voluntary abortions. The samples were processed and cultured as described (Poltavtseva et al. (2002) Brain Res Dev Brain Res 134, 149-154). The neurosphere medium consists of neurobasal medium (Gibco) supplemented with B27 (Gibco), L-glutamine (Gibco), penicillin/streptomycin, and growth factors (20 ng/mL EGF and 20 ng/mL FGF-2 (Peprotech)).
(§1) qRT-PCR was performed using Taqman probes from Applied Biosystems, according to the manufacturer's recommendations. The reactions were carried out in a ABI 7000 sequence detector (Perkin Elmer) and the results were expressed as the fold change calculated by means of the DDCt method relative to the control sample or the first quantified sample. The ribosomal unit of 18S or β-actin were used as internal normalization controls.
It was decided to investigate the molecular mechanisms responsible for the effect of TGFβ on GICs. Gene responses to TGFβ in GBM cells which could be involved in the regulation of the self-renewal of GICs were investigated. In a previous work (Bruna et al., 2007), transcriptome analyses were conducted in the U373MG glioma cell line treated with TGFβ and/or a TβRI inhibitor. LIF was among the 63 gene responses to TGFβ in U373MG which were dependent on the activity of TβRI. […] A panel of PCTCs derived from 11 different human GBMs was treated with TGFβ for 3 hours and the levels of LIF mRNA were determined.

GBM neurospheres = experiment: Differentiation of GBM neurospheres (neuroprogenitor markers, adhesion); type: cell-based, human; conditions: GBM1 neurospheres, 7 days without EGF or FGF, 100 pM TGFβ1 or 20 ng/ml LIF
Experimental: FIG. 7. TGFβ and LIF prevent the differentiation of GBM neurospheres. (A) Immunocytochemistry of the indicated proteins was performed in neurospheres derived from GBM1 treated with 100 pM TGFβ1 or 20 ng/ml LIF for 7 days in the absence of growth factors and the last 3 days on slides coated with poly-L-lysine. (B) The mRNA levels of Musashi-1 (Msi-1), Sox2 and Nestin were determined in GBM1 neurospheres after 7 days of the indicated treatments without growth factors. The RNA levels of 18S were used as an internal normalization control.
The immunocytochemistry of neurospheres and differentiated neurospheres was performed as described (Geshwind et al., 2001) using the following antibodies: anti-nestin (Chemicon), anti-GFAP (Dako), anti-TuJ1 (Chemicon), anti-04 (Chemicon), anti-Sox2 (Chemicon), anti-α-tubulin (Sigma). The nuclei were counterstained with 4′,6-diamino-2-phenylindole (DAPI).
as §1
The neurospheres derived from GBMs grown in the absence of growth factors and seeded in poly-L-lysine-coated plates tend to differentiate losing the expression of the neuroprogenitor markers Musashi-1, Sox2 and Nestin, and being adhered to the culture plate. It was decided to evaluate the effect of TGFβ and LIF on this differentiation process. The neurospheres were cultured in the presence of TGFβ or LIF without EGF or FGF for 7 days and subsequently processed for immunohistochemical staining and qRT-PCR assays for determining the levels of the neuroprogenitor markers Musashi-1, Sox2 and Nestin.

B1: TGFβ3: TGFβ3 (R&D Systems), member of the TGFβ family (protein, UniProt P10600 301-412, looked up)
Transforming growth factor …: ALDTNYCFRNLEENCCVRPLYIDFRQDLGWKWVHEPKGYYANFCSGPCPYLRSADTTHSTVLGLYNTLNPEASASPCCVPQDLEPLTILYYVGRTPKVEQLSNMVVKSCKCS
Question: For B1, which “induction of LIF mRNA in normal human neuroprogenitor neurospheres” value [1] is on record?
Answer: did not induce LIF

Question: What about the “LIF transcript in neurospheres derived from patients” value [2] of the same molecule?
Answer: capable of inducing LIF

Question: What about the “expression of Musashi-1, Sox2 and Nestin (immunocytochemistry, qRT-PCR)” value (GBM neurospheres) of the same molecule?
Answer: maintained the expression
